One assay deals with PGT145. In words: ELISA. The note with it: parent: 1.0. (In general: In an ELISA, binding on a coated surface is turned into a signal by an enzyme label.)
For another assay, the target named is 2G12. In words: ELISA. The note with it: parent: 1.0.

In the case of AMC008 SOSIP.v4.2 Env trimer E662A, the ratio to parent in the assay with PGT145 worked out at 1.1; with 2G12 it was 0.9.
For AMC008 SOSIP.v4.2 Env trimer D620N the same measures were 1.5 and 0.9.
For AMC008 SOSIP.v4.2 Env trimer K232T the same measures were 1 and 0.9.
The corresponding values for AMC008 SOSIP.v4.2 Env trimer N637Q are 0.8 and 0.9.
Turning to “AMC008 SOSIP.v4.2 Env trimer K232T; K236T”, the ratio to parent with PGT145 and with 2G12 was 0.9 each time.
As to AMC008 SOSIP.v4.2 Env trimer N624D, the ratio to parent in the assay with PGT145 was found to be 0.9; with 2G12 it was 0.8.
For AMC008 SOSIP.v4.2 Env trimer N88Q the same measures were 0.8 and 0.8.
For AMC008 SOSIP.v4.2 Env trimer N611Q the same measures were 0.8 and 0.8.
The corresponding values for AMC008 SOSIP.v4.2 Env trimer N616Q are 0.9 and 0.9.
For AMC008 SOSIP.v4.2 Env trimer K236T, the ratio to parent is 1 with PGT145 and 0.9 in the assay with 2G12.

The values are drawn from publication PMC8354326.
